Starred links: 1 amine or outer side, 2 acyl side, 3 side chain; linkers in the order of their positions; H or OH if unused. Non-standard residues stand in square brackets, D forms with d. Groups on a side chain read outwards from the residue. No end group written: not given here. *: point of attachment. C20 diacid = O=C(O)CCCCCCCCCCCCCCCCCCC(=O)*; C18 diacid = O=C(O)CCCCCCCCCCCCCCCCC(=O)*; γGlu = O=C(O)[C@H](CCC(=O)[*:2])N[*:1]; 4Pal = N[C@@H](Cc1ccncc1)C(=O)O; αMeL = CC(C)C[C@](C)(N)C(=O)O; Orn = NCCC[C@H](N)C(=O)O; AEEA = NCCOCCOCC(=O)O; Aib = CC(C)(N)C(=O)O
B1: Example 9 (peptide)
peptide: YXEGTFISDYSILLDKKHQXDFVNWLLAQGPSSGAPPPS
modifications: D-Ala2; K17((2-[2-(2-Amino-ethoxy)-ethoxy]-acetyl)2-(γ-Glu)-CO-(CH2)18-CO2H); Aib20; C-terminal amide
B2: Example 31 (peptide)
peptide: Y[Aib]EGTFISDYSILLDKK([AEEA-AEEA-γGlu-C18 diacid])HQ[Aib]DFVNYLLAAGPSSGAPPPS-NH2
modifications: N-terminus assumed
SMILES: CC[C@H](C)[C@H](NC(=O)[C@H](CO)NC(=O)[C@H](Cc1ccc(O)cc1)NC(=O)[C@H](CC(=O)O)NC(=O)[C@H](CO)NC(=O)[C@@H](NC(=O)[C@H](Cc1ccccc1)NC(=O)[C@@H](NC(=O)CNC(=O)[C@H](CCC(=O)O)NC(=O)C(C)(C)NC(=O)[C@@H](N)Cc1ccc(O)cc1)[C@@H](C)O)[C@@H](C)CC)C(=O)N[C@@H](CC(C)C)C(=O)N[C@@H](CC(C)C)C(=O)N[C@@H](CC(=O)O)C(=O)N[C@@H](CCCCN)C(=O)N[C@@H](CCCCNC(=O)COCCOCCNC(=O)COCCOCCNC(=O)CC[C@H](NC(=O)CCCCCCCCCCCCCCCCC(=O)O)C(=O)O)C(=O)N[C@@H](Cc1c[nH]cn1)C(=O)N[C@@H](CCC(N)=O)C(=O)NC(C)(C)C(=O)N[C@@H](CC(=O)O)C(=O)N[C@@H](Cc1ccccc1)C(=O)N[C@H](C(=O)N[C@@H](CC(N)=O)C(=O)N[C@@H](Cc1ccc(O)cc1)C(=O)N[C@@H](CC(C)C)C(=O)N[C@@H](CC(C)C)C(=O)N[C@@H](C)C(=O)N[C@@H](C)C(=O)NCC(=O)N1CCC[C@H]1C(=O)N[C@@H](CO)C(=O)N[C@@H](CO)C(=O)NCC(=O)N[C@@H](C)C(=O)N1CCC[C@H]1C(=O)N1CCC[C@H]1C(=O)N1CCC[C@H]1C(=O)N[C@@H](CO)C(N)=O)C(C)C
B3: Example 14 (peptide)
peptide: Y[dA]EGTFISDYSILLDKK([AEEA-AEEA-γGlu-C20 diacid])HQQDFVEWLLAQGPSSGAPPPS-NH2
modifications: N-terminus assumed
SMILES: CC[C@H](C)[C@H](NC(=O)[C@H](CO)NC(=O)[C@H](Cc1ccc(O)cc1)NC(=O)[C@H](CC(=O)O)NC(=O)[C@H](CO)NC(=O)[C@@H](NC(=O)[C@H](Cc1ccccc1)NC(=O)[C@@H](NC(=O)CNC(=O)[C@H](CCC(=O)O)NC(=O)[C@@H](C)NC(=O)[C@@H](N)Cc1ccc(O)cc1)[C@@H](C)O)[C@@H](C)CC)C(=O)N[C@@H](CC(C)C)C(=O)N[C@@H](CC(C)C)C(=O)N[C@@H](CC(=O)O)C(=O)N[C@@H](CCCCN)C(=O)N[C@@H](CCCCNC(=O)COCCOCCNC(=O)COCCOCCNC(=O)CC[C@H](NC(=O)CCCCCCCCCCCCCCCCCCC(=O)O)C(=O)O)C(=O)N[C@@H](Cc1c[nH]cn1)C(=O)N[C@@H](CCC(N)=O)C(=O)N[C@@H](CCC(N)=O)C(=O)N[C@@H](CC(=O)O)C(=O)N[C@@H](Cc1ccccc1)C(=O)N[C@H](C(=O)N[C@@H](CCC(=O)O)C(=O)N[C@@H](Cc1c[nH]c2ccccc12)C(=O)N[C@@H](CC(C)C)C(=O)N[C@@H](CC(C)C)C(=O)N[C@@H](C)C(=O)N[C@@H](CCC(N)=O)C(=O)NCC(=O)N1CCC[C@H]1C(=O)N[C@@H](CO)C(=O)N[C@@H](CO)C(=O)NCC(=O)N[C@@H](C)C(=O)N1CCC[C@H]1C(=O)N1CCC[C@H]1C(=O)N1CCC[C@H]1C(=O)N[C@@H](CO)C(N)=O)C(C)C
B4: Example 15 (peptide)
peptide: Y[dA]EGTFISDYSILLDKK([AEEA-AEEA-γGlu-C20 diacid])HQQDFVNYLLAQGPSSGAPPPS-NH2
modifications: N-terminus assumed
SMILES: CC[C@H](C)[C@H](NC(=O)[C@H](CO)NC(=O)[C@H](Cc1ccc(O)cc1)NC(=O)[C@H](CC(=O)O)NC(=O)[C@H](CO)NC(=O)[C@@H](NC(=O)[C@H](Cc1ccccc1)NC(=O)[C@@H](NC(=O)CNC(=O)[C@H](CCC(=O)O)NC(=O)[C@@H](C)NC(=O)[C@@H](N)Cc1ccc(O)cc1)[C@@H](C)O)[C@@H](C)CC)C(=O)N[C@@H](CC(C)C)C(=O)N[C@@H](CC(C)C)C(=O)N[C@@H](CC(=O)O)C(=O)N[C@@H](CCCCN)C(=O)N[C@@H](CCCCNC(=O)COCCOCCNC(=O)COCCOCCNC(=O)CC[C@H](NC(=O)CCCCCCCCCCCCCCCCCCC(=O)O)C(=O)O)C(=O)N[C@@H](Cc1c[nH]cn1)C(=O)N[C@@H](CCC(N)=O)C(=O)N[C@@H](CCC(N)=O)C(=O)N[C@@H](CC(=O)O)C(=O)N[C@@H](Cc1ccccc1)C(=O)N[C@H](C(=O)N[C@@H](CC(N)=O)C(=O)N[C@@H](Cc1ccc(O)cc1)C(=O)N[C@@H](CC(C)C)C(=O)N[C@@H](CC(C)C)C(=O)N[C@@H](C)C(=O)N[C@@H](CCC(N)=O)C(=O)NCC(=O)N1CCC[C@H]1C(=O)N[C@@H](CO)C(=O)N[C@@H](CO)C(=O)NCC(=O)N[C@@H](C)C(=O)N1CCC[C@H]1C(=O)N1CCC[C@H]1C(=O)N1CCC[C@H]1C(=O)N[C@@H](CO)C(N)=O)C(C)C
B5: Example 75 (peptide)
peptide: YXEGTXISDYSIXLDKKHQXDFVEXLLETGPSSGAPPPS
modifications: Aib2; Iva6; αMeL13; K17((2-[2-(2-Amino-ethoxy)-ethoxy]-acetyl)2-(γ-Glu)-CO-(CH2)18-CO2H); Aib20; 4-Pal25; C-terminal amide
B6: Example 77 (peptide)
peptide: YXEGTXISDYSIXLDXKHQXDFVEXLLETGPSSGAPPPS
modifications: Aib2; Iva6; αMeL13; Orn16; K17((2-[2-(2-Amino-ethoxy)-ethoxy]-acetyl)2-(γ-Glu)-CO-(CH2)18-CO2H); Aib20; 4-Pal25; C-terminal amide
B7: Example 92 (peptide)
peptide: Y[Aib]EGTFISDYSI[αMeL]LDKIHQ[Aib]DFVEYK([AEEA-AEEA-γGlu-C20 diacid])LEQGPSSGAPPPS-NH2
modifications: N-terminus assumed
SMILES: CC[C@H](C)[C@H](NC(=O)[C@H](CCCCN)NC(=O)[C@H](CC(=O)O)NC(=O)[C@H](CC(C)C)NC(=O)[C@](C)(CC(C)C)NC(=O)[C@@H](NC(=O)[C@H](CO)NC(=O)[C@H](Cc1ccc(O)cc1)NC(=O)[C@H](CC(=O)O)NC(=O)[C@H](CO)NC(=O)[C@@H](NC(=O)[C@H](Cc1ccccc1)NC(=O)[C@@H](NC(=O)CNC(=O)[C@H](CCC(=O)O)NC(=O)C(C)(C)NC(=O)[C@@H](N)Cc1ccc(O)cc1)[C@@H](C)O)[C@@H](C)CC)[C@@H](C)CC)C(=O)N[C@@H](Cc1c[nH]cn1)C(=O)N[C@@H](CCC(N)=O)C(=O)NC(C)(C)C(=O)N[C@@H](CC(=O)O)C(=O)N[C@@H](Cc1ccccc1)C(=O)N[C@H](C(=O)N[C@@H](CCC(=O)O)C(=O)N[C@@H](Cc1ccc(O)cc1)C(=O)N[C@@H](CCCCNC(=O)COCCOCCNC(=O)COCCOCCNC(=O)CC[C@H](NC(=O)CCCCCCCCCCCCCCCCCCC(=O)O)C(=O)O)C(=O)N[C@@H](CC(C)C)C(=O)N[C@@H](CCC(=O)O)C(=O)N[C@@H](CCC(N)=O)C(=O)NCC(=O)N1CCC[C@H]1C(=O)N[C@@H](CO)C(=O)N[C@@H](CO)C(=O)NCC(=O)N[C@@H](C)C(=O)N1CCC[C@H]1C(=O)N1CCC[C@H]1C(=O)N1CCC[C@H]1C(=O)N[C@@H](CO)C(N)=O)C(C)C
B8: Example 80 (peptide)
peptide: Y[Aib]EGTFISDYSI[αMeL]LD[Orn]K([AEEA-AEEA-γGlu-C20 diacid])HQ[Aib]DFVE[4Pal]LLETGPSSGAPPPS-NH2
modifications: N-terminus assumed
SMILES: CC[C@H](C)[C@H](NC(=O)[C@H](Cc1ccccc1)NC(=O)[C@@H](NC(=O)CNC(=O)[C@H](CCC(=O)O)NC(=O)C(C)(C)NC(=O)[C@@H](N)Cc1ccc(O)cc1)[C@@H](C)O)C(=O)N[C@@H](CO)C(=O)N[C@@H](CC(=O)O)C(=O)N[C@@H](Cc1ccc(O)cc1)C(=O)N[C@@H](CO)C(=O)N[C@H](C(=O)N[C@@](C)(CC(C)C)C(=O)N[C@@H](CC(C)C)C(=O)N[C@@H](CC(=O)O)C(=O)N[C@@H](CCCN)C(=O)N[C@@H](CCCCNC(=O)COCCOCCNC(=O)COCCOCCNC(=O)CC[C@H](NC(=O)CCCCCCCCCCCCCCCCCCC(=O)O)C(=O)O)C(=O)N[C@@H](Cc1c[nH]cn1)C(=O)N[C@@H](CCC(N)=O)C(=O)NC(C)(C)C(=O)N[C@@H](CC(=O)O)C(=O)N[C@@H](Cc1ccccc1)C(=O)N[C@H](C(=O)N[C@@H](CCC(=O)O)C(=O)N[C@@H](Cc1ccncc1)C(=O)N[C@@H](CC(C)C)C(=O)N[C@@H](CC(C)C)C(=O)N[C@@H](CCC(=O)O)C(=O)N[C@H](C(=O)NCC(=O)N1CCC[C@H]1C(=O)N[C@@H](CO)C(=O)N[C@@H](CO)C(=O)NCC(=O)N[C@@H](C)C(=O)N1CCC[C@H]1C(=O)N1CCC[C@H]1C(=O)N1CCC[C@H]1C(=O)N[C@@H](CO)C(N)=O)[C@@H](C)O)C(C)C)[C@@H](C)CC

Columns and labels:
human GLP-1 receptor = biological target: T1, human GLP-1 receptor (human, UniProt P43220 24-463); assay: SPA, displacement of [125I]-GLP-1 from hGLP-1R membranes, 0.1% bacitracin
T1 construct: whole, on cells; Assayed as crude membranes of stably transfected HEK293 cells; also called hGLP1R; hGLP-1R
Procedure: The binding buffer contains 25 mM HEPES, pH 7.4, 2.5 mM CaCl₂, 1 mM MgCl₂, 0.1% (w/v) bacitracin, 0.003% (w/v) TWEEN®-20, and Roche Complete™ Protease Inhibitors without EDTA.
(§1) Data are analyzed using four-parameter (curve maximum, curve minimum, […], Hill slope) nonlinear regression routines (Genedata Screener, version 12.0.4, Genedata AG, Basal, Switzerland). […] Values for Kᵢ are reported as the geometric mean, with error expressed as the standard error of the mean (SEM) and n is equal to the number of independent replicates (determined in assays performed on different days). Geometric Means are calculated as follows: […]

[1] = biological target: T2, human glucose-dependent insulinotropic polypeptide (GIP) receptor (human, UniProt P48546 22-466); assay: SPA, displacement of [125I]-GIP from hGIPR membranes, 0.1% bacitracin
T2 construct: whole, on cells; Assayed as crude membranes of stably transfected CHO cells; also called hGIPR; human GIP receptor
T2 sequence (looked up): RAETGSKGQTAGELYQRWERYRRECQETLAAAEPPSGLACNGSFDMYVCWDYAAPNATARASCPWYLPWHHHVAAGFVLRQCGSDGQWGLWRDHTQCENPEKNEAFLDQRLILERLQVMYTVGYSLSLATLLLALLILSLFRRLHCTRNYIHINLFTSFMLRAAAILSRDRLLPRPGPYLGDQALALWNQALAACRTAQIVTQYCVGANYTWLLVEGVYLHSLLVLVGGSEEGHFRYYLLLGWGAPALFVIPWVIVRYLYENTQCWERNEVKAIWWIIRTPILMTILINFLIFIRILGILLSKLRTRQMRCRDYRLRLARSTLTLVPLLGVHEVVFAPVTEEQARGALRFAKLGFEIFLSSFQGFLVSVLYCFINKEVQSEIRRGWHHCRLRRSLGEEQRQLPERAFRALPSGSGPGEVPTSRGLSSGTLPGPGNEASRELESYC
Procedure: The binding buffer contains 25 mM HEPES, pH 7.4, 2.5 mM CaCl₂, 1 mM MgCl₂, 0.1% (w/v) bacitracin, 0.003% (w/v) TWEEN®-20, and Roche Complete™ Protease Inhibitors without EDTA. […] Plates are sealed and mixed on a plate shaker (setting 6) for 1 minute and read with a PerkinElmer Trilux MicroBeta® scintillation counter after 2.5 to 12 hours of incubation/settling time at room temperature.
as §1

Binder | Ki (human GLP-1 receptor) [pM] | Ki [1] [pM]
B1 | 168000 | 110
B2 | 266000 | 47.3
B3 | – | 460
B4 | – | 471
B5 | – | 62.6
B6 | – | 84.1
B7 | – | 33.1
B8 | – | 82.8

Source: patent publication US20210032299A1 (Eli Lilly, published 2021)
